Reference: the Human Domainome abundance scans (Beltran et al. 2025)
± gives the uncertainty stated by the source.

B1: Formin-binding protein 4, residues 200 to 261; numbered along this chain, Q8N3X1 (parent)
chain: SGWQYDTQCSLAGVGIEMGDWQEVWDENTGCYYYWNTQTNEVTWELPQYLATQVQGLQHYQP

Variants of: B1
Assay: abundance fitness (aPCA) (normalised: wild type 0, dead -1); higher = more abundant; growth selection in yeast, the domain comes from the species named
Conditions: Homo sapiens

Abundance fitness of substitutions, site by site:
G15: H -0.536 ± 0.16 | D 0.132 ± 0.1 | W -0.727 ± 0.16 | P -0.03 ± 0.088 | E -0.178 ± 0.088 | C -0.182 ± 0.11 | V -0.481 ± 0.075 | L -0.638 ± 0.085 | T -0.099 ± 0.094 | F -0.583 ± 0.14 | I -0.67 ± 0.18 | A 0.273 ± 0.057 | Q 0.1 ± 0.11 | Y -0.661 ± 0.18 | S -0.11 ± 0.087 | M -0.321 ± 0.12 | K -0.073 ± 0.11 | N -0.21 ± 0.15 | R -0.071 ± 0.071
G19: P -0.897 ± 0.14 | S -0.454 ± 0.094 | N -0.676 ± 0.42 | Y -0.96 ± 0.28 | W -0.992 ± 0.17 | A -0.091 ± 0.068 | I -0.769 ± 0.19 | C -0.918 ± 0.19 | F -0.794 ± 0.19 | H -0.642 ± 0.34 | T -0.782 ± 0.14 | R -0.722 ± 0.075 | E -0.4 ± 0.09 | D -0.362 ± 0.12 | M -0.525 ± 0.12
A12: S -0.068 ± 0.06 | Y -0.025 ± 0.11 | T -0.389 ± 0.084 | M -0.587 ± 0.11 | P -0.448 ± 0.11 | N -0.331 ± 0.13 | V -0.041 ± 0.06 | C -0.185 ± 0.1 | I -0.363 ± 0.12 | H -0.217 ± 0.12 | K -0.146 ± 0.11 | Q -0.131 ± 0.094 | F -0.465 ± 0.13 | G 0.089 ± 0.077 | E -0.267 ± 0.12 | D -0.226 ± 0.14 | L -0.272 ± 0.057
E17: Y -0.838 ± 0.15 | D 0.138 ± 0.089 | L -0.577 ± 0.073 | Q -0.038 ± 0.096 | A -0.183 ± 0.081 | P -0.58 ± 0.1 | G -0.346 ± 0.061 | N -0.34 ± 0.1 | H -0.105 ± 0.11 | F -0.263 ± 0.094 | R -0.103 ± 0.051 | K 0.063 ± 0.099 | W -0.403 ± 0.078 | M -0.414 ± 0.12 | S -0.151 ± 0.06 | V -0.237 ± 0.073 | C -0.338 ± 0.077 | I -0.373 ± 0.12
G2: C -0.276 ± 0.11 | D 0.196 ± 0.075 | L -0.022 ± 0.081 | S 0.222 ± 0.065 | H 0.607 ± 0.17 | T 0.328 ± 0.083 | N 0.405 ± 0.11 | W -0.25 ± 0.12 | Q 0.052 ± 0.14 | M 0.19 ± 0.11 | I 0.273 ± 0.11 | Y 0.422 ± 0.13 | F 0.071 ± 0.13 | R -0.097 ± 0.066
T7: K -0.036 ± 0.093 | A 0.017 ± 0.067 | G -0.06 ± 0.069 | C 0.051 ± 0.076 | Y -0.181 ± 0.11 | F -0.461 ± 0.11 | H -0.318 ± 0.13 | R -0.061 ± 0.062 | W -0.493 ± 0.096 | P -0.309 ± 0.083 | L -0.452 ± 0.068 | E -0.392 ± 0.1 | I -0.453 ± 0.13 | V -0.262 ± 0.067 | S 0.002 ± 0.063 | N 0.124 ± 0.1 | M -0.37 ± 0.1 | Q -0.012 ± 0.084 | D -0.314 ± 0.11
Q8: S 0.164 ± 0.055 | M -0.097 ± 0.072 | R 0.046 ± 0.053 | Y -0.267 ± 0.13 | D -0.515 ± 0.16 | L -0.369 ± 0.061 | C -0.188 ± 0.091 | W -0.421 ± 0.082 | G 0.105 ± 0.056 | V -0.191 ± 0.062 | N -0.02 ± 0.13 | E 0.123 ± 0.084 | P -0.568 ± 0.11 | K 0.239 ± 0.08 | H 0.041 ± 0.12 | A 0.29 ± 0.062 | F -0.233 ± 0.11 | T 0.187 ± 0.067 | I -0.445 ± 0.16
S1: G 0.116 ± 0.11 | M 0.503 ± 0.11 | H -0.921 ± 0.38 | W -0.075 ± 0.17 | I -0.222 ± 0.28 | L -0.501 ± 0.11 | R -0.236 ± 0.22 | E 0.066 ± 0.31 | T 0.046 ± 0.098 | V -0.052 ± 0.09 | P -0.709 ± 0.2 | F -0.457 ± 0.14 | N -0.093 ± 0.18 | Y -0.631 ± 0.2 | Q -0.673 ± 0.35 | K 0.293 ± 0.15
Q4: K 0.358 ± 0.088 | N 0.318 ± 0.088 | I 0.232 ± 0.085 | R 0.106 ± 0.053 | W -0.241 ± 0.078 | C -0.051 ± 0.085 | S -0.023 ± 0.055 | A -0.447 ± 0.092 | L -0.385 ± 0.065 | P -0.635 ± 0.12 | T 0.288 ± 0.07 | F 0.146 ± 0.083 | D 0.182 ± 0.1 | H 0.126 ± 0.088 | M 0.165 ± 0.089 | G -0.207 ± 0.073 | Y -0.176 ± 0.097 | V 0.147 ± 0.061 | E -0.037 ± 0.11
I16: K -0.542 ± 0.15 | Q -0.621 ± 0.12 | Y -0.334 ± 0.27 | C -0.373 ± 0.12 | S -0.574 ± 0.094 | G -0.763 ± 0.088 | L -0.137 ± 0.064 | D -0.742 ± 0.32 | M 0.08 ± 0.088 | W -0.671 ± 0.092 | N -0.676 ± 0.33 | F -0.195 ± 0.19 | A -0.332 ± 0.082 | E -0.507 ± 0.092 | T -0.506 ± 0.11 | R -0.713 ± 0.068 | P -0.735 ± 0.13 | V 0.027 ± 0.058 | H -0.8 ± 0.41
Y5: T -0.271 ± 0.085 | R -0.181 ± 0.061 | S -0.323 ± 0.067 | Q -0.357 ± 0.092 | D -0.525 ± 0.17 | C -0.592 ± 0.15 | W -0.207 ± 0.09 | L -0.425 ± 0.058 | F -0.115 ± 0.095 | G -0.36 ± 0.093 | I -0.436 ± 0.12 | A -0.416 ± 0.089 | E -0.218 ± 0.086 | H -0.052 ± 0.13 | P -0.506 ± 0.11 | V -0.534 ± 0.09 | M 0.06 ± 0.064
S10: C -0.332 ± 0.098 | K -0.457 ± 0.12 | Q -0.498 ± 0.11 | W -1.03 ± 0.17 | G -0.148 ± 0.052 | V -0.701 ± 0.071 | N -0.533 ± 0.13 | T -0.112 ± 0.078 | F -0.776 ± 0.14 | D -0.472 ± 0.12 | P -0.216 ± 0.081 | Y -0.623 ± 0.17 | A -0.266 ± 0.065 | L -0.651 ± 0.074 | H -0.644 ± 0.15 | I -0.476 ± 0.14 | M -0.521 ± 0.12 | R -0.328 ± 0.062
G13: S -0.171 ± 0.065 | I -0.471 ± 0.14 | F -0.129 ± 0.084 | N -0.468 ± 0.15 | R -0.194 ± 0.057 | V -0.424 ± 0.069 | P -0.082 ± 0.079 | M -0.158 ± 0.1 | L -0.187 ± 0.055 | D -0.087 ± 0.094 | K -0.107 ± 0.094 | H -0.158 ± 0.14 | Y -0.578 ± 0.14 | Q -0.197 ± 0.11 | E -0.161 ± 0.094 | A -0.237 ± 0.09 | W -0.666 ± 0.097 | C -0.103 ± 0.098 | T -0.009 ± 0.077
V14: T -0.084 ± 0.091 | P -0.698 ± 0.11 | R -0.01 ± 0.064 | L -0.071 ± 0.053 | N -0.067 ± 0.16 | A -0.06 ± 0.07 | Y 0.365 ± 0.13 | D -0.273 ± 0.24 | G 0.091 ± 0.071 | K 0.116 ± 0.068 | S -0.163 ± 0.075 | C -0.043 ± 0.17 | Q 0.071 ± 0.084 | M -0.028 ± 0.082 | E -0.03 ± 0.087 | W 0.055 ± 0.081 | H -0.09 ± 0.18
D20: F 0.15 ± 0.098 | K -0.287 ± 0.11 | H -0.043 ± 0.13 | I -0.579 ± 0.16 | C -0.162 ± 0.13 | A -0.3 ± 0.068 | E -0.162 ± 0.064 | G -0.254 ± 0.077
L11: A -0.731 ± 0.088 | D -0.429 ± 0.12 | F -0.714 ± 0.14 | P -0.636 ± 0.12 | V -0.192 ± 0.059 | N -0.79 ± 0.17 | K -0.469 ± 0.14 | M -0.625 ± 0.12 | Y -0.57 ± 0.12 | E -0.483 ± 0.097 | G -0.678 ± 0.084 | H -0.559 ± 0.12 | W -0.381 ± 0.11 | C -0.429 ± 0.1 | I -0.061 ± 0.093
W3: A 0.002 ± 0.059 | K 0.138 ± 0.083 | I -0.217 ± 0.11 | T 0.168 ± 0.07 | D -0.019 ± 0.1 | S 0.127 ± 0.058 | R -0.202 ± 0.058 | V 0.054 ± 0.053 | P -0.158 ± 0.08 | C -0.097 ± 0.083 | F 0.156 ± 0.09 | M 0.046 ± 0.068 | L -0.003 ± 0.055 | H -0.296 ± 0.1 | Q 0.157 ± 0.086 | Y 0.012 ± 0.14 | G -0.275 ± 0.058 | E -0.376 ± 0.11
C9: I -0.171 ± 0.089 | K 0.254 ± 0.073 | V 0.205 ± 0.048 | H -0.139 ± 0.11 | A 0.076 ± 0.055 | L 0.049 ± 0.05 | Q 0.017 ± 0.082 | D 0.052 ± 0.084 | Y -0.105 ± 0.076 | T 0.22 ± 0.069 | W -0.377 ± 0.095 | P -0.365 ± 0.088 | G -0.081 ± 0.058 | S 0.065 ± 0.059
D6: Y -0.644 ± 0.14 | P -0.706 ± 0.13 | K 0.009 ± 0.088 | A -0.354 ± 0.081 | R -0.14 ± 0.064 | W -0.555 ± 0.1 | S -0.35 ± 0.07 | Q -0.785 ± 0.17 | C -0.342 ± 0.11 | H -0.282 ± 0.12 | G -0.17 ± 0.068 | T -0.139 ± 0.081 | F -0.492 ± 0.1 | I -0.228 ± 0.11 | E -0.135 ± 0.086 | V -0.829 ± 0.1
M18: P -0.264 ± 0.098 | S -0.586 ± 0.099 | I -0.247 ± 0.16 | K -0.618 ± 0.12 | H -0.432 ± 0.16 | T -0.132 ± 0.098 | Q -0.69 ± 0.13 | G -0.545 ± 0.079 | E -0.534 ± 0.13 | Y -0.53 ± 0.21 | L -0.313 ± 0.065 | W 0.025 ± 0.084 | R -0.643 ± 0.092 | A -0.685 ± 0.099 | F -0.278 ± 0.12 | C -0.549 ± 0.18 | N -0.869 ± 0.22
